Data reported in the supplement of paper PMC10567573.

B1: RHOBTB2 (parent)
chain: NQEITKAFHVRRTNRVKECLAKGT

Variants of: B1
Test: protein stability index of a GFP-peptide fusion (GPS, HEK-293T) (PSI 1-6); higher = more stable
Conditions: c terminus: a fixed tail appended
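Also: lentivirally expressed fusions sorted by FACS into six bins by GFP to DsRed ratio, PSI derived from sequencing read proportions per bin multiplied by bin number.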

In order of rising protein stability index:
1. NQEITKVFHVRRTNRVKECLAKGT  1.02
2. NQEITKAFHVRRTYRVKECLAKGT  1.82
3. NQEITKAFHVRRTCRVKECLAKGT  1.88
4. NQEITKAFHVRRTNRYKECLAKGT  1.97
5. NQEITKAFMVRRTNRVKECLAKGT  2.08
6. NQEITKAFHVRRTWRVKECLAKGT  2.15
7. NQEITKAFHVRLTNRVKECLAKGT  2.16
8. NQEITKAFHVRFTNRVKECLAKGT  2.16
9. NQEITKAFHVRRTNRVKECLAKGC  2.19
10. NQEITCAFHVRRTNRVKECLAKGT  2.21
11. NQQITKAFHVRRTNRVKECLAKGT  2.22
12. NQEITKAFHVRRTNRVKECWAKGT  2.22
13. NQEITKAFHVRRTNRVKWCLAKGT  2.23
14. NQSITKAFHVRRTNRVKECLAKGT  2.26
15. NQEITMAFHVRRTNRVKECLAKGT  2.29
16. NQCITKAFHVRRTNRVKECLAKGT  2.31
17. NQEITKAFHVRITNRVKECLAKGT  2.37
18. NQVITKAFHVRRTNRVKECLAKGT  2.4
19. NQEITKAFVVRRTNRVKECLAKGT  2.4
20. NQHITKAFHVRRTNRVKECLAKGT  2.47
21. NQEITKAFHVRRTMRVKECLAKGT  2.54
22. NQEITKAFFVRRTNRVKECLAKGT  2.55
23. NQIITKAFHVRRTNRVKECLAKGT  2.57
24. NQEITKAFHVRRTNRVKHCLAKGT  2.58
25. NQEITKAFHVRRTNRVKECYAKGT  2.58
26. NQDITKAFHVRRTNRVKECLAKGT  2.63
27. NQEITKAFCVRRTNRVKECLAKGT  2.65
28. NQEITKAFHVRCTNRVKECLAKGT  2.68
29. NQEITKAFHVRRTNRVKECLAKGW  2.69
30. NQEITKAFHVRRTNRVKECLAKGV  2.7
31. NQEITKAFHVRRTNRVKECRAKGT  2.74
32. NQEITKAFHVRRTNRVKMCLAKGT  2.75
33. NQEITKAFHVRRTNRAKECLAKGT  2.78
34. NQEITKAFHVRRTNRQKECLAKGT  2.79
35. NQEITKAFHVRRTNRMKECLAKGT  2.8
36. NQEITKAFHVRRTVRVKECLAKGT  2.83
37. NQEITKAFHVRVTNRVKECLAKGT  2.83
38. NQEITKAFHVRRTNRVKECLAKGM  2.86
39. NQEITKAFHVRRTNRVKGCLAKGT  2.88
40. NQEITKAFHVRRTNRHKECLAKGT  2.88
41. NQEITKAFHVRRTNRVKNCLAKGT  2.92
42. NQEITKAFHVRRTNRVKECLAKGG  2.92
43. NQEITKAFHVRRTNRSKECLAKGT  2.95
44. NQEITKAFHVRRTRRVKECLAKGT  2.97
45. NQEITKAFSVRRTNRVKECLAKGT  2.98
46. NQEITKAFHVRRTNRVKACLAKGT  3.08
47. NQEITKAFHVRRTLRVKECLAKGT  3.09
48. NQEITKAFHVRRTQRVKECLAKGT  3.09
49. NQGITKAFHVRRTNRVKECLAKGT  3.15
50. NQEITKAFHVRRTKRVKECLAKGT  3.15
51. NQEITKAFHVRRTGRVKECLAKGT  3.17
52. NQEITKAFYVRRTNRVKECLAKGT  3.2
53. NQEITKAFHIRRTNRVKECLAKGT  3.25
54. NQEITKAFTVRRTNRVKECLAKGT  3.31
55. NQEITKAFHVRRTNRVKECLAKGH  3.32
56. NQNITKAFHVRRTNRVKECLAKGT  3.38
57. NQEITKAFHVRRTPRVKECLAKGT  3.38
58. NQENTKAFHVRRTNRVKECLAKGT  3.38
59. NQEITKAFHFRRTNRVKECLAKGT  3.39
60. NQEITKAFHVRRTNRVKVCLAKGT  3.4
61. NQEITKAFHVRRTNRWKECLAKGT  3.4
62. NQEITKAFHVRRTNRKKECLAKGT  3.41
63. NQEITKAFHVRRTNRVKECFAKGT  3.44
64. NQEITKAFHVRRTNRVKECTAKGT  3.45
65. NQEITKAFHVRRTNREKECLAKGT  3.45
66. NQEITKAFHGRRTNRVKECLAKGT  3.46
67. NQEITKAFHVRRTNRVKDCLAKGT  3.47
68. NQEITGAFHVRRTNRVKECLAKGT  3.49
69. NQEITKQFHVRRTNRVKECLAKGT  3.5
70. NQEITKAFHVRPTNRVKECLAKGT  3.5
71. NQEITKAFHVRRTNRVKECLAKGS  3.61
72. NQEITKAFHCRRTNRVKECLAKGT  3.62
73. NQEITKAFHVRRTNRVKECLAKGP  3.65
74. NQEITKAFHVRHTNRVKECLAKGT  3.72
75. NQEITKAFHVRRTNRVKECQAKGT  3.74
76. NQEKTKAFHVRRTNRVKECLAKGT  3.75
77. NQEITKAFHVRDTNRVKECLAKGT  3.78
78. NQEITKAFHVRRTDRVKECLAKGT  3.82
79. NQEITHAFHVRRTNRVKECLAKGT  3.87
80. NQEITKAFHVRRTNRLKECLAKGT  3.92
81. NQEITKAFHNRRTNRVKECLAKGT  3.92
82. NQEITKAFHVRNTNRVKECLAKGT  3.92
83. NQEITKAFHVRRTNRVKTCLAKGT  3.93
84. NQEITKAFHVRSTNRVKECLAKGT  3.95
85. NQEITPAFHVRRTNRVKECLAKGT  4.09
86. NQEITKAFHARRTNRVKECLAKGT  4.09
87. NQEITKAFDVRRTNRVKECLAKGT  4.12
88. NQEITKEFHVRRTNRVKECLAKGT  4.16
89. NQEITKAFHVRKTNRVKECLAKGT  4.31
90. NQEDTKAFHVRRTNRVKECLAKGT  4.37
91. NQEITKAFHVRRTERVKECLAKGT  4.4
92. NQEITKAFHVRRTNRVKECIAKGT  4.41
93. NQESTKAFHVRRTNRVKECLAKGT  4.49
94. NQEITKAFHVRRTNRDKECLAKGT  4.7
